In article PMC6377645, “Structural insights into chaperone addiction of toxin-antitoxin systems” (Nature Communications, 2019):

Target: Mtb-HigA1^ΔC42 (Mtb-HigA1 deleted of the last 42 residues) (Mycobacterium tuberculosis)
Test: SEC-MALS; Superdex 200 Increase 5/150; 20 mM MES, 200 mM NaCl, pH 6.5; 15 °C; Mtb-SecB^TA 49.1 µM, Mtb-SecB^TA/HigA1 6.5 µM, Mtb-HigA1^ΔC42 100 µM

Mtb-HigA1^ΔC42 (Mtb-HigA1 deleted of the last 42 residues) (domain or fragment)
stoichiometry N: 2
